# Assay: soluble on expression in E. coli; label from the status in PepcDB or PDB records
row,Sequence,soluble on expression in E. coli
1,MGHHHHHHSHMNFAGKHVGFGLTGSHCTYHEVLPQMERLVELGAKVTPFVTHTVQTTDTKFGESSEWINKIKQITEEPIVDSMVKAEPFGPKTPLDCMVIAPMTGNSTSKFANAMTDSPVLMGAKATLRNGKPVVVGISTNDALGLNGINIMRLMATKNIYFIPFGQDNPQVKPNSLVARMEALPETIEAALRGQQYQPVLIEKFRD,soluble
2,MEQPFDLAAELAKQPHLLEIAGNLLMKSGPEDYIGAVLCLRGTLYFKKAHTPLVRESLCQCFDEFERLAEPHLTWLWREEPAQGKPLTAYRDTQPLREMMGAMDEDDHLSFCYTSGKKSRDAGAWLFDIYGKRSWQAKMGHDLSVLEFSVPLLYQERQPLDFLQLFIDFARRLEPEQGYAGHAYNLSPTSWDNDEPSEAFMAARMPGLDVGTACLLANTPEFKPTRIKTVSWLTLLNNERLALAGGLDALRAQLPSSHFAFYRYGDGVVIQAGAYPYIAGDAEDSRPAPYVLLNHALKGIRYETIGSLHGGSHDGELRLVGWAADQWLKRLDVEDSEIPRWCDKLLSAEPYLDATNTLPERL,not soluble
3,MNHKVHHHHHHIEGRHMKVLILGAGNIGRAIAWDLKDEFDVYIGDVNNENLEKVKEFATPLKVDASNFDKLVEVMKEFELVIGALPGFLGFKSIKAAIKSKVDMVDVSFMPENPLELRDEAEKAQVTIVFDAGFAPGLSNILMGRIFQELDLKEGYIYVGGLPKDPKPPLYYKITWSPRDLIEEYTRPARVIRNGKVSKVDPLSEVKKVKIGKFEFEAFISDGLRSMLETINSERLEEWTLRWPGHLEKIKVLRELGFFKPENLDFTLRVIEPLMRYETKDFSIMKVVGKGEEGEMEFFLYDEEDSMFSSMSRVTGFTAAIISRIVAENTCTFGVIPPEILGMREDTFRRIIDELKERGISIEGT,soluble
4,MLAAAHKAGGTFAAESILILRNRLSGVADILADFPDDVPVYVAEAPVLDGIVGFHLHRGILALGRRVRDDGLEQMTAALPASSLVLVGCGISNHDNLGAMFRNAAAFYADAVLLDETCCDPLYRKALRVSVGSVLSVPYHRGGGAVEMLERLSEEGFAIWGLSPDGKTEIRDIPRSERMALVIGTEGEGLPQSVLSRFQTARIAQSPQVDSLNAGTASGLALYQMAGVMGRV,not soluble
5,NEKETISYIINTSKNIVIFALSPDKTKASYRVAEFLQRKNYKIFPIYPKEEFILNEKVYRNLDQIEEKIDTLILFRKGEVALEILPKLVEKNIKNLWLQLDISNETAKEECKKLDINFIQNRCIMLEYPHFK,not soluble
6,MNKELQPKVVFLMGPTASGKTALALELAEKHNCEIISVDSALIYRGMDIGSAKPSAEELARGPHRLIDIRDPSESYSAADFRADALSEIEQIISMGKTPLLVGGTMMYFKALLEGLSPLPSADEVIRADIQAEADANGWEALHDQLREIDPVSAERIHPNDPQRLSRALEVYRISGKSLTELTMTKSAPLPYNVVQFAIAPRERKVLHELIGQRFRIMLEQGFIDEVAQLKARDDLHLDLPSMRCVGYRQCWQYLDGEFDHDTMVEKAIAATRQLAKRQLTWLRSWPELNWLESGAEGNLVTLMRHCRLEHHHHHH,soluble
7,MGSDKIHHHHHHMDTIGRRLDMGKRIVLADPRGFCAGVDRAILTVRTILKSADTPRADGLPPVYVRRQIVHNKHVVEDLAAQGAVFVQELAEIPDAAAEAGIPIVFSAHGVSPAVKAEATARGMHVVDATCPLVSKVHREVLRFVKEGYEIIYIGHKGHDEAVGVVEESPEHVHLIEHASDVDSLDFQPDTKLVLLTQTTLSVDETAGTITALKARFPWLEMPPNSDICYATSNRQAAVKLVAEQADCVVIVGSANSSNSVRLMEVAQEGLSARYASKTAVGAAGRAHRVDDASELDPAWFEGVESVGISSGASVPDELVSGVVAALQELGYQDVSTIETIKENMHFVLPAELRK,not soluble
8,MSLSQTTNIKEQTDTGLAPPAPAITTNSAAIEEQANSSIRKLYHTLNTMPNTSMADRISQISAYFKGTKYILGSLGEGPNARYDQFPRYRVDGFDCDTYVNTVLSLALANSLESFQECLKHTRYKNGKRSYINRNHFTSIDWNNYNQKRGLLKDITFSIRNEKKQPVALYANALINKPQWYNHKTIDTIRLQKQDKNEQEKRLVELKAKGKTLETSLSNVPYIPFTALFSENKPNLHLFSQIPNGAVIEIIRPNWDLRQQIGTELDISHLGFAIWINNELFFRQASSQYGKVVDVSLIDYLDKARSSPTIKGINIQVVLPEKPVSNGCQLFDIREGHHHHHH,soluble
9,MKTTPDILDQIRVHGADAYPEEGCGFLLGTVTDDGDNRVAALHRATNRRSEQRTRRYELTADDYRAADAAAQEQGLDVVGVYHSHPDHPARPSATDLEEATFPGFTYVIVSVRDGAPEALTAWALAPDRSEFHREDIVRPDPEAPLEHHHHHH,soluble
10,GPGSMSYYDKSSSVGYDERDKELNEELEAMLARTPPHIQRHLQQRIHDGILQRMKEETTRKCWEFVKKYEGCVNSVQPYNIRECLPHRDALNDCAHEINCEDNYQKYRLLYLHGELLKLHEHRTGQKMEALKSRVPDSIRTWKSDYAPKYADMMSEVGAKPFTGEGENLDDE,soluble
11,MYSAPDFSNNDYKIIMSSQNMKDEKEELMDINKVSEQEMLARKVSKSYVSKIIEYREITGGFDKLEDMKRIKGIGNATYQKLSKVFKVASAPNKKMLNINSADDMTLKYYGLSKKEIKRIQKYLDKNDRITDNIEFKKIVNKKTYERLKDLINYDGGKRLEHHHHHH,soluble
12,MSLEYAKSLFERHLDIASKFRPKNPYLKTAYMNVLLSLTQTICQSPQELSNDDLSDAGAALAYLREAGFELDWLEKKLNEVKEKKKKEEACLAEIQDMDEHVKPLKKKYLDLEAQIDKKKAELLAARAPLSLNDDNVVSMFCDSAETQQWFDKNAPDWGFTEMISLTELHAEEGLLRNGELTVVAKVEVLEVVGKLDVSEESSPVIETIDVNGFQVLPSEGHHHHHH,soluble
13,MAEECSGNCDSCGSSSDCSDTKKMMEQQNAQIRDNMSKIKYKIAVMSGKGGVGKSTVTVNLAATLNMMGYKVGVLDGDIHGPNIPQMLGVDQIQPMADENGIYPVSTPQGIKTMSIGYFLPDKNTPIIWRGPKASGAIRQFLSDVNWGELDFLLIDTPPGSGDIQITTLQAIPDIDGVVIVTTPEEVSVLDARKSVSAANTLEIPIIGIVENMGGFVCPECDKVIDIFGKGGGEKAAKELNVFFLGRIPLDIKARVASDRGVPMVTMDCKASEEFKKVVNTVLERIKKELEHHHHHH,soluble
14,NWVTPDGAPGPTGKGGFAAASGRYHLYVSYACPWAHRTLIFREIKGLSAHIPVSAVHPDMLDQGWTFAPEPQGRTGDRLYGLNYAHQVYTRADPTYSGRVTVPILWDSERQTVVSNESSEIIRMFNSAFDGLTGNRDDFWPEALREAIEPVNARIYDTVNN,not soluble
15,MAEKEHNPGNVKPNRSWTSVLGTKITFSEGLILNIEGYYKYIFNRMYIPVSIGLDDFDIRPQFNGEGRVWGIDLMLQKLQSRYWDGWLSYSYSWARYRDPSSGNATIGFSGGTRGNDWYFPNFHRFHNLNLVINIKPAPQFNFYTRFGLASGTQLPRRTTDRPATYPVFMFDDPETPGIPKFVQRYNWPSETDEDNRTTPTLSMDIKFSFFGKNRTGKTRYEIYFALENVLSLVYRPQGNTRFNTFTGVIETGSDAASYGLPIPIPSFGFKFSY,not soluble
16,GPFPPPGMSLPEYWGEEHVWWDGRAAFHGEVVRPACTLAMEDAWQIIDMGETPVRDLQNGFSGPERKFSLRLRNCEFNSQGGNLFSDSRIRVTFDGVRGETPDKFNLSGQAKGINLQIADVRGNIARAGKVMPAIPLTGNEEALDYTLRIVRNGKKLEAGNYFAVLGFRVDYE,soluble
17,MGSDKIHHHHHHMLLNLFNEMRAAKVPVSVRELLDLIDALKHRVVFADMDEFYYLARTIMVKDERHFDKFDRAFGAYFKGLEKLDDHLKALIPEEWLRKEFERLLTDEEKAQIQSLGGLDKLIEEFKKRLEEQKERHAGGNKWIGTGGTSPFGSGGFNPEGIRVGDAGKRQGKAAKVWDQREYKNLDDQVELGTRNIKIALRRLRKFAREGAAEELDIDGTIDHTAKDAGLLNIQMRPERRNTVKLLLLLDIGGSMDAHVKVCEELFSACKTEFKHLEYFYFHNFIYESVWKNNLRRSSERTATFDLLHKYGPDYKVVFVGDAAMAPYEITQAGGSVEHWNEEAGYVWMQRFMEKYKKLIWINPYPKDTWNYTASTGLVRELVKEQMYPLTLSGLEEGMRFLSRG,not soluble
18,MASGDITRYVITVTFHEDSLTEINELNNHLTRSGFLLTLTDDEGDVHELGTNTFGFVSAQSADEIKALVAGLAKSALDKDVDITVATWEAWSKNAQ,not soluble
19,MARNRLTESEMNEALRALDGWQKVDGREAITRSFKFKDFSTAFGFMAQAALYAEKLDHHPEWFNAYNRVDVTLATHSENGVTELDIKMARKMNAIAG,soluble
20,MIVPALIGSLPRPIGLAKKIELYSIGRLSEEKLEEAYRSYTRKAFENLKKARIKVITDGLYRWDDIFNPLIRFIDGVEVNGLFKFYENNFFYRSPVVRGELSLKENPLPGWISIAQEIKEDVYPEAELKAVLPGPVTLAYHSINEYYKDLNELTEAYATVLRELIKELDVKIMELQEPSLAAELSKATRESEEHVSKEVAKKVIEDLARVKKLWVVTYFGTPQVVPKDVILNIDLIEGNVPDEVKGEVGLGIVNARETKMERADRLKDKLRKYIRKFEKVYVTPNTLLDFLPERVAWKKLKLLGRLGGELEHHHHHH,not soluble
21,MSFDANIATQYYILMTIKTFRCADPETLFKLGRVARFVNIERPALRKLKQLDLARCIEDIRVPPANRPEILKGDRAGQHSIRINDQWRVCFRWTGTDAEDVEIVDYH,not soluble
22,VICHGDFAPYNVALNGNQTVGIFDFDTAHPAPRLWDIAYAVYCWAPFKTNEYDALGDLNSQSARAKLFCDSYGLSNAEREKL,not soluble
23,DKPVLKDSMRLFEQLGRVKSRSMFGGFGIFVDETMFALVVNDTLHIRADDATIEKYKQQGYEPYVYKKRGFPVVTKYYALPEDCWSHPDSILNEVRAALEVAKAERETQAQAK,not soluble
24,MRRIGAITALSLPVLLSLLYSCGTGGSASKEEILSKKEHNPEPNIPLECYTDTGVVKLGKAIANPCYVCHTKALTPYENEVDDFDLQLVYDFPEEIKEMGNPWLNAIKPELTIGSVPMPSDEEIKTWIRQDNWSKAYAEKGKGELVYFPDIPPIYKYENGSYELINVDKEGFVRDPETGEYTGWRVFKWKPFPGFFPTNGRIDSTFIRLPEKFRKKNGEFDLNLYKKNLAILECAMKGVAPGETCSGTEVGDFIMPFRYEGDASDVEVVVYQYPPGTEFAHPLYYLDPENTLSFKSLRIKEMRYMKKLAYADTRTGTGEEEEEEGTFFWDKGRFFNDSGYWEMRAFIEDKNGYLRPQSPEESKFCIACHGGIGGTVDGTFTLWRKIPGEEGWKEQDYKNIKDYRYKAITCENLDSLEMGEEVKKALEAYCSKVGESPGEYTVYFALTAGGDHFRSNYEILQDISVDGKVDLELLYNPEKIKFIDNSGFIKPELFFPEPERAYGIDKQYYRIVKAQAFIYGRDVFEKAFGISSGGNSLEELDNLESTGVKESGIWNFVKNFLSSE,not soluble
